# Measurements: patent US20110274692A1 (published 2011)
# Biological target: T1, INS/INSR complex (human, UniProt P06213 28-1382; P01308 25-110, limits assumed)
# T1 construct: cells carrying INSR pre-exposed to human insulin (150 nM for CHO-K1 hINSR cells); also called R-L; INSR with insulin
# Test: ratio of the value for R to the value for R-L, Table 2
row,Binder,KD ratios (R against R-L)
1,"Ab053 (antibody, V domains shown) VH: not shown VL: QSALTQPRSVSESPGKTVTISCTGSGGSIGSNYVQWYQQRPGSAPTTVIFEDNRRPSGVPDRFSGSIHSSSNSASLTISGLKTEDEADYYCQSYVGTIVVFGGGTKVTVL",1.5
2,"Ab062 (antibody, V domains shown) VH: QVQLQQWGAGLLKPSETLSLTCAVYGGSFSGYYWSWIRQPPGKGLEWIGEINHSGSTNYNPSLKSRVTISVDTSKNQFSLKLSSVTAADTAVYYCARGPSGWYIREFDYWGQGTLVTVSS VL: QSVLTQPPSVSGAPGQRVTISCTGSSSNIGAGYDVHWYQQLPGTAPKLLIYGNSNRPSGVPDRFSGSKSGTSASLAITGLQAEDEADYYCQSYDSSLSGSGVFGGGTKVTVL",1.1
3,"Ab037 (antibody, V domains shown) VH: EVQLLESGGGLVQPGGSLRLSCAASGFTFSSYEMNWVRQAPGKGLEWVSSISSSSRYADVANSVVGRFTISRDNSKNTLYLQMNSLRAEDTAVYYCARGEWLDHFDYWGQGTLVTVSS VL: QSVLTQPPSASGTPGQRVTISCSGSSSNIGNSAVNWYQQLPGTAPKLLIYDNNKRPSGVPDRFSGSKSGTSASLAISGLRSEDEADYYCQVWDSGTAVFGGGTKLTVLG",1.4
4,"Ab001 (antibody, V domains shown) VH: EVQLLESGGGLVQPGGSLRLSCAASGFTFSSYEMNWVRQAPGKGLEWVSSISSSSSYIYYADSVKGRFTISRDNSKNTLYLQMNSLRAEDTAVYYCARVRWYKDSDAFDIWGQGTLVTVSS VL: not shown",103

# The next lines start with the values.
row,KD ratios (R against R-L),Binder
1,17.6,"Ab080 (antibody, V domains shown) VH: EVQLVESGGGVVQPGGSLRLSCAASGFTFDDYAMHWVRQAPGKGLEWVSLISWDGGSTYYADSVKGRFTISRDNSKNSLYLQMNSLRAEDTALYYCAKARGVVIIDYWGQGTLVTVSS VL: EIVLTQSPGTLSLSPGERATLSCRASQSLSSSFLAWYQQKPGQAPRLLIYGAGSRATGVPDRFSGSGYGTDFSLTISRLELEDFAVYYCQQYDRSQITFGQGTRLEIK"
2,20.2,"Ab083 (antibody, V domains shown) VH: not shown VL: AIQLTQSPSSLSASVGDRVTISCRASQSITSYLNWYQQKPGKAPNLLIYAASSLQSGVPSRFSGSGSGTDFTLTIAGLQPEDFATYYCQQFDSYPFTFGGGTKLEIK"
3,19.4,"Ab079 (antibody, V domains shown) VH: QMQLVQSGAEMKKPGASVKVSCKASGYSFSDYGITWVRQAPGQGPEWMGWISGYNGNTNYAQKFQDRVTMTTDTSTSTAYMELRSLKSDDTAVYFCARARGVWMFDNWGQGTLVTVSS VL: AIRMTQSPSTLSASVGDRVTITCRASQSISTWLAWYQQKPGKAPKLLIYTTSTLESGVPSRFSGSRSGTEFTLTISSLQPDDFATYYCQQYNSYPLTFGGGTKVEIK"
